In article PMC7483370 (Molecular cell, 2020):

Columns and labels:
[1] = molecular target: T1, Androgen receptor, full-length, flag-tagged, recombinant (baculovirus) (human, UniProt P10275 1-920); test: cryo-EM structure
T1 sequence (looked up): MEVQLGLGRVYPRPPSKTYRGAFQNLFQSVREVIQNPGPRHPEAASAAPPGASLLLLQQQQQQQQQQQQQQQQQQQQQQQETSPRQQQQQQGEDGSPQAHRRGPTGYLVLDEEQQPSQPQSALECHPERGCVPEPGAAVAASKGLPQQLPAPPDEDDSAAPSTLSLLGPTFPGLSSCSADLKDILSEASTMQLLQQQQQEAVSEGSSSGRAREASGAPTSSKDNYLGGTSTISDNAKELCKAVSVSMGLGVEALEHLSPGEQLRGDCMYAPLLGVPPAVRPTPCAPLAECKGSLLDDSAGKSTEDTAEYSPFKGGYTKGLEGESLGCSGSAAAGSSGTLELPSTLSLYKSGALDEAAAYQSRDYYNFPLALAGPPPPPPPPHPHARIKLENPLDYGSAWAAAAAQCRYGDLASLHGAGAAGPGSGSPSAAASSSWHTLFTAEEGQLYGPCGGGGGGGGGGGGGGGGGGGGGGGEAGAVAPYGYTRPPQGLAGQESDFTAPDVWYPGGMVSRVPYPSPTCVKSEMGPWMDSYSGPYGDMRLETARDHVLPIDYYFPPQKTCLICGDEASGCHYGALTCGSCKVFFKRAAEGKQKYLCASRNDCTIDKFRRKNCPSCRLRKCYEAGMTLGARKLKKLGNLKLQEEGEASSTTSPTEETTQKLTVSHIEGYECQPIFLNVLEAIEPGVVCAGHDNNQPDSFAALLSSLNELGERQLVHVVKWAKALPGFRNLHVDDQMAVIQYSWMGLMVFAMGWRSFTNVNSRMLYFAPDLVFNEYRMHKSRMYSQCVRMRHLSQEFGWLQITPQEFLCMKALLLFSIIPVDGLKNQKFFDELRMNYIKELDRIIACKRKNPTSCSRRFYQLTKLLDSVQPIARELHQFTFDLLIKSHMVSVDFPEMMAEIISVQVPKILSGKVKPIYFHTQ

[2] = molecular target: p300, purified recombinant (baculovirus) (human, UniProt Q09472 1-2414); test: co-IP
Sequence of p300, purified recombinant (baculovirus) (Q09472 whole entry): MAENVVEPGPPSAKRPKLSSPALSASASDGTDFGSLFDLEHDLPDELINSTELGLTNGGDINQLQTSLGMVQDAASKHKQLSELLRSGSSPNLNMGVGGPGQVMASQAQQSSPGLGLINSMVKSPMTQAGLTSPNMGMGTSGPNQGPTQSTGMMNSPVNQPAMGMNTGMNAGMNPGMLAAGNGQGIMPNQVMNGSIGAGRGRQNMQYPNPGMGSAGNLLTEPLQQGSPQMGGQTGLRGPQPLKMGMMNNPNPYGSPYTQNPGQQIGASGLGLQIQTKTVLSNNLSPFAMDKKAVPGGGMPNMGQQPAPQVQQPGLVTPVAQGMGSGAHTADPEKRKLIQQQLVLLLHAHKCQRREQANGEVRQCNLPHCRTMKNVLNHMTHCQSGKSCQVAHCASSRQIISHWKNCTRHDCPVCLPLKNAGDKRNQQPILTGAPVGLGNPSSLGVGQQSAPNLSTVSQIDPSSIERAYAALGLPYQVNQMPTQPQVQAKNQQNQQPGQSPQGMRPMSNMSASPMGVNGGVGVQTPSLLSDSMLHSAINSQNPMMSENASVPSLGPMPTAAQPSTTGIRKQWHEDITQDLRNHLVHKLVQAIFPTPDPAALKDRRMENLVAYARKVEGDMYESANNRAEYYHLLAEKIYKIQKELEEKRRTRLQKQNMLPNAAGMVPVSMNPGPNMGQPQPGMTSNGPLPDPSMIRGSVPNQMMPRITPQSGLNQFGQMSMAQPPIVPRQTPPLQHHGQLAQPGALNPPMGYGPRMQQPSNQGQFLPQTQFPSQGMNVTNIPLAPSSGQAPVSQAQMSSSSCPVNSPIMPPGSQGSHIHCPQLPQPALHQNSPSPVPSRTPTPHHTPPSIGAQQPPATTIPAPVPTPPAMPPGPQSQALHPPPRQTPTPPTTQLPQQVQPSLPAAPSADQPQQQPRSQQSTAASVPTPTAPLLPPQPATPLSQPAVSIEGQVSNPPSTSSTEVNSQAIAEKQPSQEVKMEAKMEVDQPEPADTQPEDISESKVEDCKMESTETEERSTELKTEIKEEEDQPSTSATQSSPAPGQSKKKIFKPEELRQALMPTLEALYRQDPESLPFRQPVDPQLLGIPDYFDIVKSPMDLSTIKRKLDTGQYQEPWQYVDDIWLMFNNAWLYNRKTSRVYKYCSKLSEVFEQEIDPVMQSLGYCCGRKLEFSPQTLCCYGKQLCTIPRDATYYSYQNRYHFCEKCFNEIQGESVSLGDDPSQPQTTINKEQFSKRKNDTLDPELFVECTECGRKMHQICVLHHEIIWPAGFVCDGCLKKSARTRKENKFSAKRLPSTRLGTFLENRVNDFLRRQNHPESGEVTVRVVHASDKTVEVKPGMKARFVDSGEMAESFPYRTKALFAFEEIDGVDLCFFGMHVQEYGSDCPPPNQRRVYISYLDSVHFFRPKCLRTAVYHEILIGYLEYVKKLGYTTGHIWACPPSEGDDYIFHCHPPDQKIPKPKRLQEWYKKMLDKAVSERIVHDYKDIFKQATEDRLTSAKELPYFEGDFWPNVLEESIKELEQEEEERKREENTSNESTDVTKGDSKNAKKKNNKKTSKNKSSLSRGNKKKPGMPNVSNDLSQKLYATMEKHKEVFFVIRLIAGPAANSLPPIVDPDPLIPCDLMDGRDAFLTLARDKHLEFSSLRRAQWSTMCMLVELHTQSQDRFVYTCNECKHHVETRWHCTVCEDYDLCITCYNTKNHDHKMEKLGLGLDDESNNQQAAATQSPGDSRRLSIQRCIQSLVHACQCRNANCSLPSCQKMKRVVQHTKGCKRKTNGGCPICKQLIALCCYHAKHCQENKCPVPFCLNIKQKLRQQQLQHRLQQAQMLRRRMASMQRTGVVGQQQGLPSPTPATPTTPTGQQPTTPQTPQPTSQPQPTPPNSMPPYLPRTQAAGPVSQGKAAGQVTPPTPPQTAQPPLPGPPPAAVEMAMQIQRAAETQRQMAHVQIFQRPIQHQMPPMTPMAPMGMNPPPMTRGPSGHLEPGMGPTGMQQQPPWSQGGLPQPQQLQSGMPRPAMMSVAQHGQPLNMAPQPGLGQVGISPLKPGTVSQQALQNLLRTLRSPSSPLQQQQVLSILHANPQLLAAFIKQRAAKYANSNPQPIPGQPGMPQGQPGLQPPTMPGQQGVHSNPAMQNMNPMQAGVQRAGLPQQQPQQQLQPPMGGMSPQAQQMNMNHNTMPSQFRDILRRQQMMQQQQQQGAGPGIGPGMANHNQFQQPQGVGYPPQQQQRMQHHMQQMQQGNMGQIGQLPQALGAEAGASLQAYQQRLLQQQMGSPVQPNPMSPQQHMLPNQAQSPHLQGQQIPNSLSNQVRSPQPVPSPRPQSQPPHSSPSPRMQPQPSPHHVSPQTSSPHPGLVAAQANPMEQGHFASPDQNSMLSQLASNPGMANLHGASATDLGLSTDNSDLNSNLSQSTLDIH

B1: SRC-3, purified recombinant (baculovirus) (natural protein)
chain: not shown
Which “stoichiometry N” value [1] does the source give for B1 here?
The value was 1.

B2: Flag-tagged AR (1-669aa), deletion mutant lacking the LBD (domain or fragment, human, UniProt P10275 1-669, looked up)
chain: MEVQLGLGRVYPRPPSKTYRGAFQNLFQSVREVIQNPGPRHPEAASAAPPGASLLLLQQQQQQQQQQQQQQQQQQQQQQQETSPRQQQQQQGEDGSPQAHRRGPTGYLVLDEEQQPSQPQSALECHPERGCVPEPGAAVAASKGLPQQLPAPPDEDDSAAPSTLSLLGPTFPGLSSCSADLKDILSEASTMQLLQQQQQEAVSEGSSSGRAREASGAPTSSKDNYLGGTSTISDNAKELCKAVSVSMGLGVEALEHLSPGEQLRGDCMYAPLLGVPPAVRPTPCAPLAECKGSLLDDSAGKSTEDTAEYSPFKGGYTKGLEGESLGCSGSAAAGSSGTLELPSTLSLYKSGALDEAAAYQSRDYYNFPLALAGPPPPPPPPHPHARIKLENPLDYGSAWAAAAAQCRYGDLASLHGAGAAGPGSGSPSAAASSSWHTLFTAEEGQLYGPCGGGGGGGGGGGGGGGGGGGGGGGEAGAVAPYGYTRPPQGLAGQESDFTAPDVWYPGGMVSRVPYPSPTCVKSEMGPWMDSYSGPYGDMRLETARDHVLPIDYYFPPQKTCLICGDEASGCHYGALTCGSCKVFFKRAAEGKQKYLCASRNDCTIDKFRRKNCPSCRLRKCYEAGMTLGARKLKKLGNLKLQEEGEASSTTSPTEETTQKLTVSHIEGYE
Does B2 bind [2]?
Result: binds
